The record followed here is article PMC4426631, “Insect antimicrobial peptides show potentiating functional interactions against Gram-negative bacteria” (Proceedings of the Royal Society B: Biological Sciences, 2015).

Cf = 5(6)-carboxyfluorescein A value given as a limit tells only on which side of the number the result lay.

B1: Abaecin (P3), Bombus pascuorum, Cf-[residues removed]-NH2 (peptide)
peptide: Cf-FVPYNPPRPGQSKPFPSFPGHGPFNPKIQWPYPLPNPGH-NH2
notes: abaecin of Bombus pascuorum, 39 residues; also called B. pascuorum abaecin; source: synthetic peptide (PANATecs, Tübingen), purified to >95%
B2: Metalnikowin I (P1), Palomena prasina, Cf-VDKPDYRPRPRPPNM-NH2 (peptide)
peptide: Cf-VDKPDYRPRPRPPNM-NH2
notes: metalnikowin I of Palomena prasina; source: synthetic peptide (PANATecs, Tübingen), purified to >95%
B3: Metchnikowin-2 (P5), Drosophila melanogaster, Cf-[residues removed]-NH2 (peptide)
peptide: Cf-HRRQGPIFDTRPSPFNPNQPRPGPIY-NH2
notes: metchnikowin 2 of Drosophila melanogaster; source: synthetic peptide (PANATecs, Tübingen), purified to >95%
B4: Metalnikowin IIA (P2), Palomena prasina, Cf-VDKPDYRPRPWPRPN-NH2 (peptide)
peptide: Cf-VDKPDYRPRPWPRPN-NH2
notes: metalnikowin IIA of Palomena prasina; source: synthetic peptide (PANATecs, Tübingen), purified to >95%
B5: Metchnikowin-1 (P4), Drosophila melanogaster, Cf-[residues removed]-NH2 (peptide)
peptide: Cf-HRHQGPIFDTRPSPFNPNQPRPGPIY-NH2
notes: metchnikowin 1 of Drosophila melanogaster; source: synthetic peptide (PANATecs, Tübingen), purified to >95%

T1 sequence (P0A6Y8 whole entry): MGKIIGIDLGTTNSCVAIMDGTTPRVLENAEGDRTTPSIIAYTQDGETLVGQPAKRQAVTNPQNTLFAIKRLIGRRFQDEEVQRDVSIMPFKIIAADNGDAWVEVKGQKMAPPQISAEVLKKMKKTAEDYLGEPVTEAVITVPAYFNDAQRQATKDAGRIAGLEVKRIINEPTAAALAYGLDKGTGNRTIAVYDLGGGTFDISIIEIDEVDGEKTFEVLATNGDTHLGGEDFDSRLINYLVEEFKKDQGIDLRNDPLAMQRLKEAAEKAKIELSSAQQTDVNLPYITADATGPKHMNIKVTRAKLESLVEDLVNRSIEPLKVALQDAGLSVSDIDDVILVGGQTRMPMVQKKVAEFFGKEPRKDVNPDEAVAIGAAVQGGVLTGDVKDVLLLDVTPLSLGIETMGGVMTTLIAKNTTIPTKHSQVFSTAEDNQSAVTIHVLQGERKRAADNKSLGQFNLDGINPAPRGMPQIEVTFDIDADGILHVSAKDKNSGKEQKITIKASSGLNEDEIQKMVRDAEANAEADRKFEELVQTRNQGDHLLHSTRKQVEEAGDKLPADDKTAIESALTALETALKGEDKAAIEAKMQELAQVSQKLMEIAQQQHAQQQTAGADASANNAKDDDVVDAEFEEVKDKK

The assay has as its target T1, DnaK–BHQ10 (E. coli chaperone DnaK labelled with Black Hole Quencher 10) (E. coli, UniProt P0A6Y8 1-638, BHQ10 (from BHQ10-NHS-ester), labelling ratio 1 : 9 DnaK : BHQ10).
T1 construct: chaperone DnaK of Escherichia coli; also called bacterial DnaK; quencher-labelled bacterial DnaK probe; source: produced by Michael Zahn [50]; dialysed and labelled with BHQ10-NHS-ester
Kind of assay: FRET or BRET; FRET-based quenching assay in solution: fluorescein-modified peptide (50 μl, 1.3 nmol/l) mixed with a serial dilution of DnaK–BHQ10 (50 μl, 0.8–13 000 nmol/l, 1 : 4 series) in modifying buffer (20 mmol/l Na2HPO4, 20 mmol/l KH2PO4, 5 mmol/l MgCl2, 150 mmol/l KCl, pH 7.4), black 384-well plate, 2 h; Kd by non-linear regression (dose-response logistical function, SlideWrite) of quenching against DnaK …. The settings on record: both partners purified.
For B1, the Kd amounted to 0.19 ± 0.03 µM.

For B2, the Kd is over 5 µM.

Regarding B3, the Kd is over 5 µM.

Regarding B4, the Kd was over 5 µM.

For B5, the Kd is over 5 µM.
